Like-named read-outs stand apart in the source and are kept apart here.

Assay [1] has as its target YPet. Briefly: FRET or BRET. For orientation: Bioluminescence resonance energy transfer reports proximity on the nanometre scale.
For assay [2], the target named is YPet. Briefly: FRET or BRET. This is another data set of the same source.

As for ECFP, in the assay with YPet [1], the FRET efficiency, oxidized (0 mmol/L DTT) worked out at 0.288 and the FRET efficiency, reduced (10 mmol/L DTT) was determined as 0.376.
For CyPet, in the assay with YPet [1], the FRET efficiency, oxidized (0 mmol/L DTT) was 0.27 and the FRET efficiency, reduced (10 mmol/L DTT) worked out at 0.265. In addition, in the assay with YPet [2], the FRET efficiency, oxidized (0 mmol/L DTT) amounted to 0.371 and the FRET efficiency, reduced (10 mmol/L DTT) was 0.375.
